Test results: patent publication US6936708, “Expression of Alfin 1 and methods for producing transgenic plants having increased root growth and root specific gene activation” (Arizona Board of Regents, acting for and on behalf of …)

B1: Alfin1 binding sequence SEQ 8 (dsDNA)
DNA 1: GACGGCAGAAGGGAGAAACGTGGAGAATC
DNA 2: GATTCTCCACGTTTCTCCCTTCTGCCGTC
B2: Alfin1 binding sequence SEQ 7 (dsDNA)
DNA 1: GACGGGGATAGGTGAGGTGGAGGGACAAT
DNA 2: ATTGTCCCTCCACCTCACCTATCCCCGTC
B3: Alfin1 binding sequence SEQ 10 (dsDNA)
DNA 1: GACGAAGGAAGGACGGCAGCGTGTTGC
DNA 2: GCAACACGCTGCCGTCCTTCCTTCGTC
B4: Alfin1 binding sequence SEQ 6 (dsDNA)
DNA 1: GACGGGTAGGGTGTGGGGGGTGTTTTATT
DNA 2: AATAAAACACCCCCCACACCCTACCCGTC
B5: Alfin1 binding sequence SEQ 9 (dsDNA)
DNA 1: GACGGCGGGAAGGAGTGTGGTAGAGAGCC
DNA 2: GGCTCTCTACCACACTCCTTCCCGCCGTC
B6: Alfin1 binding sequence SEQ 4 (dsDNA)
DNA 1: GACGCAAAGGGGGTGGGGACGGCGCTTTT
DNA 2: AAAAGCGCCGTCCCCACCCCCTTTGCGTC
B7: Alfin1 binding sequence SEQ 5 (dsDNA)
DNA 1: GACGCAAAGGGGGTGGGGACGGCGCTTTT
DNA 2: AAAAGCGCCGTCCCCACCCCCTTTGCGTC

molecular target: T1, Alfin1 (Medicago sativa, UniProt Q40359 Q40359:1-257); test: DNA sequence that binds Alfin1 in vitro
T1 sequence: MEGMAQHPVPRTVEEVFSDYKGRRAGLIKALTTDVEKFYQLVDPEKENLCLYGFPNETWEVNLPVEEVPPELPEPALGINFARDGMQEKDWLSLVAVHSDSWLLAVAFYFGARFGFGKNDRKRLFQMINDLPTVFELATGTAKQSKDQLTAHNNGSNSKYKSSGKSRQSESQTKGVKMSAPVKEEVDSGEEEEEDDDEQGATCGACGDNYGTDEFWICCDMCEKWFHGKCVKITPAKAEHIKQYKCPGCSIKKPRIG
Source text: (§1) To identify DNA sequences that are recognized by Alfin1 protein, the purified Alfin1 protein was used in the "random DNA binding" assay (See: Rauscher III F. J., Morris J. F., Tournay O. E., Cook D. M., Curran T. *Binding of the Wilm's tumor locus* zinc finger protein to the EGR-1 consensus sequence. Science, 1990; 250, 1259–1262) and the bound DNA purified by four rounds of PCR amplification and binding, followed by cloning of the isolated sequences.

Binding result, binds:
B1
B2
B3
B4
B5
B6

molecular target: T1, Alfin1; test: DNA sequence that binds Alfin1 in vitro; listed identical to SEQ 4
Source text: as §1

Binding result, binds:
B7
